Molecular target: T1, NY-ESO-1 (human, UniProt P78358 1-180, limits assumed)
T1 construct: Tumor antigen; coated on ELISA plates (ThermoFisher or RayBiotech) and amine-coupled to a CM5 chip for SPR (RayBiotech); also called NY-ESO-1/CTAG1B
Assay: SPR, NY-ESO-1 immobilised on CM5, antibody as analyte, bivalent analyte model
Protocol: Binding experiments were performed in HBS-EP buffer (10 mM HEPES pH 7.4, 150 mM NaCl, 3.4 mM EDTA, and 0.005% P20 surfactant). Serially diluted antibodies were injected at a flow rate of 30 μL/min for 60 s with a dissociation time of 5 min. The chip was regenerated after each run by sequential injection of 10 mM glycine, pH 3, and 500 mM arginine, pH 8 for 1 min each. For each run, a bovine serum albumin (BSA)-coupled surface was used to subtract non-specific receptor binding.

T1 sequence (P78358 whole entry): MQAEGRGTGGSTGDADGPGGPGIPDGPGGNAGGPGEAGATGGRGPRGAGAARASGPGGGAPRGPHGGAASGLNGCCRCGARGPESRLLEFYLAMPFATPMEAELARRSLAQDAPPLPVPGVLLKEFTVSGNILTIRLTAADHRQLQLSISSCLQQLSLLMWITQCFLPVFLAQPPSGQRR

- binding result: binds
B1: BC2-3G1 (antibody, V domains shown)
VH: QVQLQQSGPGLVKPSQTLSLTCAISGDSVSSNSAAWNWIRQSPSRGLEWLGRTYYRSKWYNDYAVSVKSRITINPDTSKNQFSLQLNSVTPEDTAVYYCARDLGIAAAGDFDYWGQGTLVTVSS
VL: EIVLTQSPATLSLSPGERATLSCRASQGVSSYLAWYQQKPGQAPRLLIYDASNRATGIPARFSGSGSGTDFTLTISSLEPEDFAVYYCHQGSNWPTFGGGTKVEI
notes: also called BC2-3G lineage member 1; BC2-3G sub-lineage 1

— patent publication US20200270704A1 (University of Texas, published 2020)
